Test results: US11214774B2, “PINK1 C-terminal domain polypeptide and methods using the same in cancer treatment” (National Taiwan University, priority 2015, dated 2022)

Legend:
EGFR (HER1) [1] = target: T1, EGFR (HER1) (Homo sapiens, UniProt P00533); assay: EGFR (HER1) phosphorylation in lung cancer cells co-cultured with CTD polypeptide; assay type: cell-based; conditions: 2 μM, vs R9 control (FIG. 5A)
T1 construct: endogenous in cells; host or cells: CL1-5, HOP62, PC9, H1975 lung cancer cells
From the text: (§1) R9: a peptide consisting of 9 arginine residues.
(§2) To determine the interaction between PINK1-CTD and HER1 or HER2, PINK1-CTD polypeptide was co-cultured with CL1-5, HOP62, PC9 or H1975 cells. In this example, the used PINK1-CTD was synthesized from Genmedkia Biotechnology Corp., and it was conjugated with 9 arginine residues for membrane attaching and internalization. The group in which the cells were co-cultured with a peptide only having 9 arginine residues (R9) was used as control group.

EGFR (HER1) [2] = target: T2, EGFR (HER1) (Homo sapiens, UniProt P00533, L858R/T790M); assay: as above; assay type: cell-based; conditions: H1975 cells; 2 μM; vs R9 control (FIG. 5A)
T2 construct: endogenous in cells; host or cells: CL1-5, HOP62, PC9, H1975 lung cancer cells
From the text: as §1, §2

EGFR (HER1) [3] = assay: as above; assay type: cell-based; conditions: PC9 cells; 2 μM; vs R9 control (FIG. 5A)
From the text: as §1, §2

HER2 = target: T3, HER2 (Homo sapiens, UniProt P04626); assay: HER2 phosphorylation in CL1-5 cells co-cultured with CTD polypeptide; assay type: cell-based; conditions: CL1-5 cell (FIG. 5B)
T3 construct: endogenous in cells; host or cells: CL1-5 cells
From the text: as §1, §2

CL1-5 [4] = assay: CL1-5 lung cancer mouse xenograft model, CTD treatment; assay type: in vivo; conditions: CL1-5 xenograft; 2 μM injected every day or every two days; vs R9 (FIG. 11A)
From the text: as §1
(§3) It was next investigated the in vivo tumor growth of PINK1-CTD stably expressing CL1-5, PC9, H1975 and H3255 cells. It has been shown that PINK1-CTD inhibits EGFR activation. It not only downregulates EGFR downstream signaling in EGFR-addicted PC9, H1975 and H3255 cells but also attenuates STATS-Y705 phosphorylation in EGFR non-addicted CL1-5 cells (FIGS. 9A and 9B). […] In addition, the synthetic polypeptide PINK1-CTD (Genmedkia Biotechnology Corp.) was used in mouse xenograft model. 2 μM of CTD polypeptide or R9 peptide (as control group) was injected into the mouse every day or every two days (as shown by arrow in FIGS. 11A and 11B).

H1975 [5] = assay: H1975 lung cancer mouse xenograft model, CTD treatment; assay type: in vivo; conditions: 2 μM injected every day or every two days, vs R9 (FIG. 11B)
From the text: as §1, §3

CL1-5 [6] = assay: In vitro MTT assay, CL1-5; assay type: cell-based; conditions: 2 μM (FIG. 11C)
H1975 [7] = assay: In vitro MTT assay, H1975; assay type: cell-based; conditions: 2 μM (FIG. 11C)
PC9 = assay: In vitro MTT assay, PC9; assay type: cell-based; conditions: 2 μM (FIG. 11C)
Hop62 = assay: In vitro MTT assay, Hop62; assay type: cell-based; conditions: 2 μM (FIG. 11C)
EGFR = EGFR dimerization assay under PINK1-CTD overexpression; assay type: cell-based; conditions: CL1-5, PC9, H1975 and H3255 cells (FIG. 9A)
EGFR pathway = assay: Immunoblotting of EGFR pathway under PINK1-CTD overexpression; assay type: cell-based
From the text: FIGS. 9A and 9B show hindrance of PINK1-CTD to EGFR dimerization and activation.
as §3

[8] = test system: CL1-5, PC9, H1975 and H3255 cells; assay: Tumor xenografts of PINK1-CTD stably expressing lung cancer cells; assay type: in vivo; conditions: CL1-5, PC9, H1975 and H3255 xenografts (FIGS. 6B, 6E, 6H, 6K)
From the text: FIGS. 6A-6L show tumor xenografts of shPINK1, PINK1 and PINK1-CTD stably expressing lung cancer cells. FIGs. A, D, G and J: PINK1 overexpression aggravated tumor growth in CL1-5 cells but suppressed tumor growth in PC9, H1975 and H3255 cells; FIGs. B, E, H and K: PINK1-CTD overexpression inhibited tumor growth in all cells tested; FIGs. C, F, I and L: PINK1 knockdown inhibited tumor growth in CL1-5 cells but promoted tumor growth in PC9, H1975 and H3255 cells. N=7 in each group.
as §3

[9] = test system: EGFR-TKD (amino acids 645-954); assay: In vitro GST pull-down assay; assay type: binding; conditions: recombinant GST-fused PINK1-CTD incubated with purified His-tagged EGFR-TKD; anti-His immunoblot (FIG. 3E)
From the text: To dissect the interaction between PINK1 and EGFR, it was next investigated whether these two protein kinases interact directly and through which domains they interplay. It was established a flag-fused full-length EGFR construct, EGFR-flag, (amino acids 1-1210) and 8 serial truncated EGFR-flag constructs based on different EGFR functional domains (amino acids 1-378, 1-621, 1-644, 1-690, 1-954, 645-1210, 645-954, 955-1210) (FIG. 3A). Each of these 9 constructs was co-overexpressed with full-length PINK1 in HEK293 cells. The cell lysates were immunoprecipitated by anti-flag antibody and the immunoprecipitates were immunoblotted by PINK1 antibody. […] It was simultaneously established a myc-fused full-length PINK1 construct and another 7 truncated PINK1-myc constructs containing amino acids 1-509, 1-155, 156-509, 156-309, 310-428, 429-581 and 78-581, respectively (FIG. 3C). Each of these 8 constructs was co-transfected with full-length EGFR-flag in HEK293 cells. The cell lysates were immunoprecipitated by anti-myc antibody and immunoblotted with anti-flag antibody. […] Recombinant GST-fused PINK1-CTD (amino acids 510-581) and negative-control construct GST-fused PINK1310-428 (amino acids 310-428) were individually incubated with purified His-tagged EGFR-TKD (amino acids 645-954) and analyzed by immunoblotting with anti-His antibody (FIG. 3E). […]

B1: CTD polypeptide: Synthesized PINK1-CTD (Genmedkia Biotechnology Corp.), conjugated with 9 arginine residues for membrane attaching and internalization (peptide)
peptide: SLWGEHILALKNLKLDKMVGWLLQQSAATLLANRLTEKCCVETKMKMLFLANLECETLCQAALLLCSWRAALRRRRRRRRR
EGFR (HER1) phosphorylation (EGFR (HER1) [1]; CL1-5 cells): effectively inhibited | EGFR (HER1) phosphorylation (EGFR (HER1) [1]; HOP62 cells): effectively inhibited | EGFR (HER1) phosphorylation (EGFR (HER1) [2]): effectively inhibited | EGFR (HER1) phosphorylation (EGFR (HER1) [3]): effectively inhibited | HER2 phosphorylation (HER2): inhibited HER2 phosphorylation in CL1-5 cell in a dose-dependent manner | in vivo tumor growth (CL1-5 [4]): inhibited in vivo tumor growth | in vivo tumor growth (H1975 [5]): inhibited in vivo tumor growth | cell viability (MTT) (CL1-5 [6]): reduced | cell viability (MTT) (H1975 [7]): reduced | cell viability (MTT) (PC9): reduced | cell viability (MTT) (Hop62): reduced

B2: PINK1-CTD: PINK1 C-terminal domain, amino acids 510 to 581 of PINK1 (SEQ ID NO: 1); overexpressed / stably expressed in cells (protein, listed as Homo sapiens)
chain: SLWGEHILALKNLKLDKMVGWLLQQSAATLLANRLTEKCCVETKMKMLFLANLECETLCQAALLLCSWRAAL
EGFR dimer to monomer ratio (EGFR): a decrease in EGFR dimer to monomer ratio | EGFR downstream signaling (EGFR pathway; EGFR-addicted PC9, H1975 and H3255 cells (FIG. 9B)): concurrently downregulated | phosphorylated EGFR-Y1068 to total EGFR ratio (EGFR pathway; all cells analyzed (FIG. 9B)): a decrease in phosphorylated EGFR-Y1068 to total EGFR ratio | STAT3-Y705 phosphorylation (EGFR pathway; wild-type EGFR CL1-5 cells (FIG. 9B)): only a decrease in STAT3-Y705 phosphorylation | in vivo tumor growth of PINK1-CTD stably expressing cells [8]: exerted inhibitory effects in all the cells tested

B3: GST-fused PINK1-CTD: Recombinant GST-fused PINK1 C-terminal domain, amino acids 510-581 of PINK1 (protein)
chain: SLWGEHILALKNLKLDKMVGWLLQQSAATLLANRLTEKCCVETKMKMLFLANLECETLCQAALLLCSWRAAL
modifications: left off: a dimerising Fc or GST
notes: Recombinant GST-fused PINK1 C-terminal domain, amino acids 510-581 of PINK1
direct binding to EGFR-TKD [9]: directly bound to EGFR-TKD
